Reference: the supplement of paper PMC11246515
± gives the standard deviation of the averaged measurements.

Test: total protein half-life in vivo (active degradation + dilution); higher = more stable protein
[1] = E. coli NCM3722 delta-clpP, growth: N-lim chemostat, doubling time 6 h
[2] = E. coli NCM3722 delta-hslV, growth: N-lim chemostat, doubling time 6 h
[3] = E. coli NCM3722 delta-lon, growth: N-lim chemostat, doubling time 6 h
[4] = E. coli NCM3722 delta-smpB, growth: N-lim chemostat, doubling time 6 h
[5] = wild type E. coli NCM3722, growth: C-lim chemostat, doubling time 3 h
[6] = wild type E. coli NCM3722, growth: C-lim chemostat, doubling time 6 h
[7] = wild type E. coli NCM3722, growth: C-lim chemostat, doubling time 12 h
[8] = wild type E. coli NCM3722, growth: N-lim chemostat, doubling time 6 h
[9] = wild type E. coli NCM3722, growth: N-lim chemostat, doubling time 12 h
[10] = wild type E. coli NCM3722, growth: P-lim chemostat, doubling time 6 h
[11] = wild type E. coli NCM3722, growth: P-lim chemostat, doubling time 12 h
[12] = E. coli NCM3722 delta-clpP delta-lon delta-hslV, growth: N-lim chemostat, doubling time 6 h

Sequence | total protein half-life in vivo [1] [h] | total protein half-life in vivo [2] [h] | total protein half-life in vivo [3] [h] | total protein half-life in vivo [4] [h] | total protein half-life in vivo [5] [h] | total protein half-life in vivo [6] [h] | total protein half-life in vivo [7] [h] | total protein half-life in vivo [8] [h] | total protein half-life in vivo [9] [h] | total protein half-life in vivo [10] [h] | total protein half-life in vivo [11] [h] | total protein half-life in vivo [12] [h]
MQNAGSLVVLGSINADHILNLQSFPTPGETVTGNHYQVAFGGKGANQAVAAGRSGANIAFIACTGDDSIGESVRQQLATDNIDITPVSVIKGESTGVALIFVNGEGENVIGIHAGANAALSPALVEAQRERIANASALLMQLESPLESVMAAAKIAHQNKTIVALNPAPARELPDELLALVDIITPNETEAEKLTGIRVENDEDAAKAAQVLHEKGIRTVLITLGSRGVWASVNGEGQRVPGFRVQAVDTIAAGDTFNGALITALLEEKPLPEAIRFAHAAAAIAVTRKGAQPSVPWREEIDAFLDRQR [P0A9J6] | 6.07 ± 2.1 | 4.44 ± 0.042 | 4.91 ± 0.38 | 4.54 ± 0.2 | 3.14 ± 0.1 | 5.66 ± 0.076 | 11.8 ± 0.53 | 4.74 ± 0.36 | 7.76 ± 0.41 | 5.878 ± 0.056 | 11.9 ± 0.91 | 
MQNNEQTEYKTVRGLTRGLMLLNMLNKLDGGASVGLLAELSGLHRTTVRRLLETLQEEGYVRRSPSDDSFRLTIKVRQLSEGFRDEQWISALAAPLLGDLLREVVWPTDVSTLDVDAMVVRETTHRFSRLSFHRAMVGRRLPLLKTASGLTWLAFCPEQDRKELIEMLASRPGDDYQLAREPLKLEAILARARKEGYGQNYRGWDQEEKIASIAVPLRSEQRVIGCLNLVYMASAMTIEQAAEKHLPALQRVAKQIEEGVESQAILVAGRRSGMHLR | 2.12 | 1.85 ± 0.042 | 2.59 | 1.26 | 1.55 ± 0.24 | 2.35 ± 0.052 | 3.26 ± 1.1 | 1.85 ± 0.27 |  | 1.72 ± 0.43 | 2.94 ± 0.64 | 6.32 ± 0.84
MQPFGVLDRYIGKTIFTTIMMTLFMLVSLSGIIKFVDQLKKAGQGSYDALGAGMYTLLSVPKDVQIFFPMAALLGALLGLGMLAQRSELVVMQASGFTRMQVALSVMKTAIPLVLLTMAIGEWVAPQGEQMARNYRAQAMYGGSLLSTQQGLWAKDGNNFVYIERVKGDEELGGISIYAFNENRRLQSVRYAATAKFDPEHKVWRLSQVDESDLTNPKQITGSQTVSGTWKTNLTPDKLGVVALDPDALSISGLHNYVKYLKSSGQDAGRYQLNMWSKIFQPLSVAVMMLMALSFIFGPLRSVPMGVRVVTGISFGFVFYVLDQIFGPLTLVYGIPPIIGALLPSASFFLISLWLLMRKS [P0ADC6] | 6.53 ± 0.4 | 6.81 ± 0.8 | 6.01 ± 0.47 | 6.08 ± 0.48 |  | 6.69 ± 0.65 | 12.3 ± 0.43 | 6.06 ± 0.099 | 12.9 ± 0.5 | 6.22 ± 0.49 | 13.5 ± 0.88 | 
MQPNDITFFQRFQDDILAGRKTITIRDESESHFKTGDVLRVGRFEDDGYFCTIEVTATSTVTLDTLTEKHAEQENMTLTELKKVIADIYPGQTQFYVIEFKCL | 5.77 ± 0.22 | 5.77 ± 0.14 | 6.02 ± 0.22 | 6.22 ± 0.28 | 3.49 ± 0.34 | 5.2 ± 1.4 | 10.4 ± 3.3 | 6.12 ± 0.24 | 11.3 ± 0.97 | 6.47 ± 0.56 | 14 ± 0.55 | 
MQQIARSVALAFNNLPRPHRVMLGSLTVLTLAVAVWRPYVYHRDATPIVKTIELEQNEIRSLLPEASEPIDQAAQEDEAIPQDELDDKIAGEAGVHEYVVSTGDTLSSILNQYGIDMGDITQLAAADKELRNLKIGQQLSWTLTADGELQRLTWEVSRRETRTYDRTAANGFKMTSEMQQGEWVNNLLKGTVGGSFVASARNAGLTSAEVSAVIKAMQWQMDFRKLKKGDEFAVLMSREMLDGKREQSQLLGVRLRSEGKDYYAIRAEDGKFYDRNGTGLAKGFLRFPTAKQFRISSNFNPRRTNPVTGRVAPHRGVDFAMPQGTPVLSVGDGEVVVAKRSGAAGYYVAIRHGRSYTTRYMHLRKILVKPGQKVKRGDRIALSGNTGRSTGPHLHYEVWINQQAVNPLTAKLPRTEGLTGSDRREFLAQAKEIVPQLRFD [P0AFS9] |  | 6.32 |  |  | 0.826 ± 0.34 | 3.3 ± 0.13 | 6.19 | 5.39 |  |  |  | 3.29
MQQKMIQFSGDVSLPAVGQGTWYMGEDASQRKTEVAALRAGIELGLTLIDTAEMYADGGAEKVVGEALTGLREKVFLVSKVYPWNAGGQKAINACEASLRRLNTDYLDLYLLHWSGSFAFEETVAAMEKLIAQGKIRRWGVSNLDYADMQELWQLPGGNQCATNQVLYHLGSRGIEYDLLPWCQQQQMPVMAYSPLAQAGRLRNGLLKNAVVNEIAHAHNISAAQVLLAWVISHQGVMAIPKAATIAHVQQNAAVLEVELSSAELAMLDKAYPAPKGKTALDMV |  |  |  |  | 2.9 ± 0.38 | 5.61 ± 0.92 | 8.61 ± 1.4 |  |  | 5.03 ± 0.38 | 9.97 ± 0.73 | > 8
